Experimental data from publication PMC7959386 (2021).

B1: MR17 (synthetic nanobody, sybody) (VHH)
VHH: QVQLVESGGGLVQAGGSLRLSCAASGFPVEVWRMEWYRQAPGKEREGVAAIESYGHGTRYADSVKGRFTISRDNAKNTVYLQMNSLKPEDTAVYYCNVKDDGQLAYHYDYWGQGTQVTVSA
B2: MR6 (synthetic nanobody, sybody) (VHH)
VHH: QVQLVESGGGLVQAGGSLRLSCAASGFPVEDTWMEWYRQAPGKEREWVAAITSWGFKTYYADSVKGRFTISRDNAKNTVYLQMNSLKPEDTAVYYCNVKDEGDTSASYDYWGQGTQVTVSS

Tests used:
[1] = target: T1, SARS-CoV-2 Spike receptor-binding domain (residues 330-541) (SARS-CoV-2, UniProt P0DTC2 330-541); experiment: BLI
[2] = target: T1, SARS-CoV-2 Spike receptor-binding …; experiment: BLI; remark: listed apart in the source

Binder	Kd [1] [nM]	koff [2] [s⁻¹]
B1	83.7	0.0097
B2	–	0.0072
